This is an account of results in article PMC12887176, “IRF1 is a context-dependent homeostatic gatekeeper of basal immunity and antiviral readiness”.

The target in this data set is T1, IRF1 DBD-mNeonGreen (UniProt P10914 1-136).
T1 sequence: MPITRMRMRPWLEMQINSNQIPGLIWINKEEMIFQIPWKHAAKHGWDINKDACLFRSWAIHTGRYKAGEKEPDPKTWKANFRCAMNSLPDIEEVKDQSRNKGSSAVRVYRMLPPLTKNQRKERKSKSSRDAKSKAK
Put plainly: mass photometry; 1:1 protein:DNA; ~45 to ~65 kDa; 1:1 molar protein:DNA, 4 h at room temperature; protein lysed in PBS with 360 mM NaCl, 10% glycerol, DTT (assay buffers and pH not given); PBM: PBS, 360 mM NaCl, 1 mM DTT, 2% milk, 0.2% Triton X-100, room temperature. Particulars: protein: recombinant; tags: mNeonGreen fusion (42 kDa total); blunt.

B1: specific DNA (IRF1 consensus) (dsDNA)
DNA 1: GAGAAGTGAAAGTACTTTCACTTCTC
DNA 2: GAGAAGTGAAAGTACTTTCACTTCTC
In the case of B1, the binding result is “binds”.
